Test results: publication PMC3041752

Columns and labels:
[1] = molecular target: human Proliferating Cell Nuclear Antigen (PCNA) (human); experiment: SEC-MALS; gel filtration coupled to multi-angle light scattering; 3 or 0.3 mg/ml (~100 or 10 µM) in 20 mM sodium phosphate, 150 mM NaCl, 0.03% (w/v) sodium azide, pH 7.0
[2] = molecular target: human Proliferating Cell Nuclear Antigen (PCNA) (human); experiment: AUC; sedimentation velocity, 100 µM protein (monomer concentration); trimer to monomers
[3] = molecular target: budding yeast Proliferating Cell Nuclear Antigen (PCNA) (budding yeast); experiment: SEC-MALS; gel filtration coupled to multi-angle light scattering; 3 or 0.3 mg/ml (~100 or 10 µM) in 20 mM sodium phosphate, 150 mM NaCl, 0.03% (w/v) sodium azide, pH 7.0
[4] = molecular target: budding yeast Proliferating Cell Nuclear Antigen (PCNA) (budding yeast); experiment: AUC; sedimentation velocity, 100 µM protein (monomer concentration); trimer to monomers

population of species with the molecular weight of a dimer of trimers [1]	stoichiometry N [1]	population of monomers in equilibrium with the trimer [2]	stoichiometry N [2]	population of species with the molecular weight of a dimer of trimers [3]	stoichiometry N [3]	population of monomers in equilibrium with the trimer [4]	stoichiometry N [4]	Substance
< 4%	3	< 3%	3					human Proliferating Cell Nuclear Antigen (PCNA) (natural protein)
				< 4%	3	< 3%	3	budding yeast Proliferating Cell Nuclear Antigen (PCNA) (natural protein)
